Laboratory results as given in patent US20020164620.

Columns and labels:
[1] = biological target: T1, SCC1-myc (in vitro translated human SCC1 with myc tag) (UniProt O60216)
T1 sequence: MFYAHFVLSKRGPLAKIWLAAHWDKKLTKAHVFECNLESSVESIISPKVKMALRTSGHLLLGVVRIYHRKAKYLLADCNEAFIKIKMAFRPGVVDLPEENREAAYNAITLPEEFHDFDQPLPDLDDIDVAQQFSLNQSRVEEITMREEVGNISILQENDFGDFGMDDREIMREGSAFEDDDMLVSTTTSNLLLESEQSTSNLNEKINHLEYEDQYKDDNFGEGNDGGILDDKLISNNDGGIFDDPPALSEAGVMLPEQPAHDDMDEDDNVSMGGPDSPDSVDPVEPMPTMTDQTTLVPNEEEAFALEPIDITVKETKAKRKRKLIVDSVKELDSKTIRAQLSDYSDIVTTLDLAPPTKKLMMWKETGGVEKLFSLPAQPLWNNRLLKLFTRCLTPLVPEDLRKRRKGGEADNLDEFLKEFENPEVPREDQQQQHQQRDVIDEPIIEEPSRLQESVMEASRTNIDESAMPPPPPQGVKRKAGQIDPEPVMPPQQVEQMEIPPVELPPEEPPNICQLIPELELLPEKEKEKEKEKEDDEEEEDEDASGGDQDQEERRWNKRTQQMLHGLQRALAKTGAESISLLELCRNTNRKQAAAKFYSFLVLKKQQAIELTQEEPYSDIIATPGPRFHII

[2] = system: T2, Bio-SVEQGR-cmk
T2 sequence: SVEQGR

[3] = system: T3, Bio-SVEQGR-amk
T3 sequence: SVEQGR

[4] = system: separase-myc (in vitro translated separase construct with one myc epitope at its C-terminus)
[5] = biological target: T4, recombinant human securin, wildtype, expressed in E. coli (UniProt O95997)
T4 sequence: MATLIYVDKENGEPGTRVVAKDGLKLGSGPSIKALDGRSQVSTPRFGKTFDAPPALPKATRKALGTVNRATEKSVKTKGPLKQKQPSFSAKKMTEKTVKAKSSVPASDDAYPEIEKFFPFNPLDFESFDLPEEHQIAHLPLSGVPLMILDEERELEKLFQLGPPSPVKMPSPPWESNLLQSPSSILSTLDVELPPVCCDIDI

[6] = biological target: T5, destruction box deleted form of securin (UniProt O95997)
T5 sequence: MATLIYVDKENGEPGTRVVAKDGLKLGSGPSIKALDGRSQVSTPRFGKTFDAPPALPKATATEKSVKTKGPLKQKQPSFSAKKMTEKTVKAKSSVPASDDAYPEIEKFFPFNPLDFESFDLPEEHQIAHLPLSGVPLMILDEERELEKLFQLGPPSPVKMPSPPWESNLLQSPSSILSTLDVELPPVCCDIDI

Substance	cleavage of SCC1-myc (anti-myc immunoblot, FIG. 6B) [1]	cleavage of SCC1-myc by separase (anti-myc immunoblot) [2]	cleavage of SCC1-myc by separase (anti-myc immunoblot) [3]	cleavage of SCC1-myc by separase (anti-myc immunoblot, FIG. 4C lane 2i) [3]	cleavage of SCC1-myc by separase (anti-myc immunoblot, FIG. 4C lane 3i) [3]	cleavage of SCC1-myc (anti-myc immunoblot) [1]	cleavage of in vitro translated separase-myc (anti-myc immunoblot, FIG. 5) [4]	cleavage of SCC1-myc by separase (anti-myc immunoblot) [5]	cleavage of SCC1-myc by separase (anti-myc immunoblot) [6]
N-terminally FLAG-tagged full length human separase expressed in HeLa cells, anti-FLAG immunoprecipitate activated in mitotic Xenopus egg extract	ectopically expressed separase is able to cleave human SCC1								
cleaved form of human separase (separase immunoprecipitate from nocodazole-arrested HeLa cells, activated in mitotic Xenopus egg extract)		both inhibitors are able to block the ability of separase to cleave SCC1	both inhibitors are able to block the ability of separase to cleave SCC1	separase was unable to cleave SCC1	This treatment inhibited SCC1 cleavage by separase	it is the cleaved form of separase that is the active protease which cleaves SCC1, unless it is inhibited by the rebinding of securin	in vitro translated separase was cleaved when it was incubated with active separase obtained by incubation of separase immunoprecipitates in mitotic Xenopus egg extracts	no cleavage of SCC1 was detected	Identical results were obtained with two different forms of securin, the wildtype protein (WT-securin) and a form that can not be destroyed by ubiquitin-dependent proteolysis (DB-securin
